The MegaScale stability set (Tsuboyama et al. 2023)

B1: HHH_rd1_0493 (parent)
chain: RDEDEKEKIKEALKRGNEDKAKEIAKRANVSPEEYERLRKEAE

Variants of: B1
Experiment: folding stability dG (cDNA display proteolysis); higher = more stable
Settings: PBS, room temperature

Variant | folding stability dG
RDEDEKEKIKEALKRGNEDKPKEIAKRANVSPEEYERLRKEAE [A21P] | 0.448 kcal/mol
RDEDEKEKIKEALKRGNEDKNKEIAKRANVSPEEYERLRKEAE [A21N] | 0.483 kcal/mol
RDEDEKEKIKEALKRGNEDKDKEIAKRANVSPEEYERLRKEAE [A21D] | 0.52 kcal/mol
RDEDEKEKIKEALKRGNQDKAKEIAKRANVSPEEYERLRKEAE [E18Q] | 2.54 kcal/mol
RDEDEKEKIKEALKRGNMDKAKEIAKRANVSPEEYERLRKEAE [E18M] | 2.74 kcal/mol
RDEDEKEKIKEALKRGNRDKAKEIAKRANVSPEEYERLRKEAE [E18R] | 2.15 kcal/mol
RDEDEKEKIKEALKRGNPDKAKEIAKRANVSPEEYERLRKEAE [E18P] | 2.48 kcal/mol
RDEDEKEKIKEALKRGNFDKAKEIAKRANVSPEEYERLRKEAE [E18F] | 3.24 kcal/mol
RDEDEKEKIKEALKRGNSDKAKEIAKRANVSPEEYERLRKEAE [E18S] | 2.47 kcal/mol
RDEDEKEKIKEALKRGNADKAKEIAKRANVSPEEYERLRKEAE [E18A] | 2.59 kcal/mol
RDEDEKEKIKEALKRGNKDKAKEIAKRANVSPEEYERLRKEAE [E18K] | 2.25 kcal/mol
RDEDEKEKIKEALKRGNCDKAKEIAKRANVSPEEYERLRKEAE [E18C] | 2.58 kcal/mol
RDEDEKEKIKEALKRGNHDKAKEIAKRANVSPEEYERLRKEAE [E18H] | 2.94 kcal/mol
RDEDEKEKIKEALKRGNGDKAKEIAKRANVSPEEYERLRKEAE [E18G] | 2.06 kcal/mol
RDEDEKEKIKEALKRGNNDKAKEIAKRANVSPEEYERLRKEAE [E18N] | 2.29 kcal/mol
RDEDEKEKIKEALKRGNTDKAKEIAKRANVSPEEYERLRKEAE [E18T] | 2.84 kcal/mol
RDEDEKEKIKEALKRGNVDKAKEIAKRANVSPEEYERLRKEAE [E18V] | 3.19 kcal/mol
RDEDEKEKIKEALKRGNDDKAKEIAKRANVSPEEYERLRKEAE [E18D] | 2.47 kcal/mol
RDEDEKEKIKEALKRGNIDKAKEIAKRANVSPEEYERLRKEAE [E18I] | 3.25 kcal/mol
RDEDEKEKIKEALKRGNLDKAKEIAKRANVSPEEYERLRKEAE [E18L] | 2.86 kcal/mol

Variant | folding stability dG
RDEDEKEKIKEALKRGNWDKAKEIAKRANVSPEEYERLRKEAE [E18W] | 2.62 kcal/mol
RDEDEKEKIKEALKRGNYDKAKEIAKRANVSPEEYERLRKEAE [E18Y] | 3.21 kcal/mol
RDEDEKEKIKEALKRGNEDMAKEIAKRANVSPEEYERLRKEAE [K20M] | 3.37 kcal/mol
RDEDEKEKIKEALKRGNEDVAKEIAKRANVSPEEYERLRKEAE [K20V] | 3.24 kcal/mol
RDEDEKEKIKEALKRGNEDWAKEIAKRANVSPEEYERLRKEAE [K20W] | 3.02 kcal/mol
RDEDEKEKIKEALKRGNEDSAKEIAKRANVSPEEYERLRKEAE [K20S] | 2.6 kcal/mol
RDEDEKEKIKEALKRGNEDAAKEIAKRANVSPEEYERLRKEAE [K20A] | 3.16 kcal/mol
RDEDEKEKIKEALKRGNEDFAKEIAKRANVSPEEYERLRKEAE [K20F] | 2.98 kcal/mol
RDEDEKEKIKEALKRGNEDPAKEIAKRANVSPEEYERLRKEAE [K20P] | 0.93 kcal/mol
RDEDEKEKIKEALKRGNEDQAKEIAKRANVSPEEYERLRKEAE [K20Q] | 3.19 kcal/mol
RDEDEKEKIKEALKRGNEDHAKEIAKRANVSPEEYERLRKEAE [K20H] | 2.87 kcal/mol
RDEDEKEKIKEALKRGNEDYAKEIAKRANVSPEEYERLRKEAE [K20Y] | 3.13 kcal/mol
RDEDEKEKIKEALKRGNEDGAKEIAKRANVSPEEYERLRKEAE [K20G] | 2.5 kcal/mol
RDEDEKEKIKEALKRGNEDDAKEIAKRANVSPEEYERLRKEAE [K20D] | 2.85 kcal/mol
RDEDEKEKIKEALKRGNEDLAKEIAKRANVSPEEYERLRKEAE [K20L] | 4.31 kcal/mol
RDEDEKEKIKEALKRGNEDNAKEIAKRANVSPEEYERLRKEAE [K20N] | 2.27 kcal/mol
RDEDEKEKIKEALKRGNEDIAKEIAKRANVSPEEYERLRKEAE [K20I] | 3.16 kcal/mol
RDEDEKEKIKEALKRGNEDEAKEIAKRANVSPEEYERLRKEAE [K20E] | 3.82 kcal/mol
RDEDEKEKIKEALKRGNEDRAKEIAKRANVSPEEYERLRKEAE [K20R] | 3 kcal/mol
RDEDEKEKIKEALKRGNEDTAKEIAKRANVSPEEYERLRKEAE [K20T] | 2.76 kcal/mol

Variant | folding stability dG
RDEDEKEKIKEALKRGAEDKAKEIAKRANVSPEEYERLRKEAE [N17A] | 2.65 kcal/mol
RDEDEKEKIKEALKRGGEDKAKEIAKRANVSPEEYERLRKEAE [N17G] | 1.46 kcal/mol
RDEDEKEKIKEALKRGWEDKAKEIAKRANVSPEEYERLRKEAE [N17W] | 3.09 kcal/mol
RDEDEKEKIKEALKRGCEDKAKEIAKRANVSPEEYERLRKEAE [N17C] | 1.99 kcal/mol
RDEDEKEKIKEALKRGVEDKAKEIAKRANVSPEEYERLRKEAE [N17V] | 1.45 kcal/mol
RDEDEKEKIKEALKRGHEDKAKEIAKRANVSPEEYERLRKEAE [N17H] | 3.01 kcal/mol
RDEDEKEKIKEALKRGDEDKAKEIAKRANVSPEEYERLRKEAE [N17D] | 3.78 kcal/mol
RDEDEKEKIKEALKRGTEDKAKEIAKRANVSPEEYERLRKEAE [N17T] | 1.63 kcal/mol
RDEDEKEKIKEALKRGSEDKAKEIAKRANVSPEEYERLRKEAE [N17S] | 2.19 kcal/mol
RDEDEKEKIKEALKRGREDKAKEIAKRANVSPEEYERLRKEAE [N17R] | 2.68 kcal/mol
RDEDEKEKIKEALKRGLEDKAKEIAKRANVSPEEYERLRKEAE [N17L] | 3.13 kcal/mol
RDEDEKEKIKEALKRGFEDKAKEIAKRANVSPEEYERLRKEAE [N17F] | 2.98 kcal/mol
RDEDEKEKIKEALKRGKEDKAKEIAKRANVSPEEYERLRKEAE [N17K] | 2.41 kcal/mol
RDEDEKEKIKEALKRGMEDKAKEIAKRANVSPEEYERLRKEAE [N17M] | 2.94 kcal/mol
RDEDEKEKIKEALKRGQEDKAKEIAKRANVSPEEYERLRKEAE [N17Q] | 3.2 kcal/mol
RDEDEKEKIKEALKRGIEDKAKEIAKRANVSPEEYERLRKEAE [N17I] | 1.54 kcal/mol
RDEDEKEKIKEALKRGPEDKAKEIAKRANVSPEEYERLRKEAE [N17P] | 1.03 kcal/mol
RDEDEKEKIKEALKRGYEDKAKEIAKRANVSPEEYERLRKEAE [N17Y] | 2.75 kcal/mol
RDEDEKEKIKEALKRGEEDKAKEIAKRANVSPEEYERLRKEAE [N17E] | 3.38 kcal/mol
